Measured values published in paper PMC4067574 (Protein expression and purification, 2010).
Where “and” joins values, the source holds several entries; their conditions need not be identical. Equal entries are not always repeated.

B1: recombinant human complement factor H, V62,Y402 variant (rFH), Endo Hf-deglycosylated (natural protein, UniProt P08603 19-1231, looked up)
chain: EDCNELPPRRNTEILTGSWSDQTYPEGTQAIYKCRPGYRSLGNVIMVCRKGEWVALNPLRKCQKRPCGHPGDTPFGTFTLTGGNVFEYGVKAVYTCNEGYQLLGEINYRECDTDGWTNDIPICEVVKCLPVTAPENGKIVSSAMEPDREYHFGQAVRFVCNSGYKIEGDEEMHCSDDGFWSKEKPKCVEISCKSPDVINGSPISQKIIYKENERFQYKCNMGYEYSERGDAVCTESGWRPLPSCEEKSCDNPYIPNGDYSPLRIKHRTGDEITYQCRNGFYPATRGNTAKCTSTGWIPAPRCTLKPCDYPDIKHGGLYHENMRRPYFPVAVGKYYSYYCDEHFETPSGSYWDHIHCTQDGWSPAVPCLRKCYFPYLENGYNQNYGRKFVQGKSIDVACHPGYALPKAQTTVTCMENGWSPTPRCIRVKTCSKSSIDIENGFISESQYTYALKEKAKYQCKLGYVTADGETSGSITCGKDGWSAQPTCIKSCDIPVFMNARTKNDFTWFKLNDTLDYECHDGYESNTGSTTGSIVCGYNGWSDLPICYERECELPKIDVHLVPDRKKDQYKVGEVLKFSCKPGFTIVGPNSVQCYHFGLSPDLPICKEQVQSCGPPPELLNGNVKEKTKEEYGHSEVVEYYCNPRFLMKGPNKIQCVDGEWTTLPVCIVEESTCGDIPELEHGWAQLSSPPYYYGDSVEFNCSESFTMIGHRSITCIHGVWTQLPQCVAIDKLKKCKSSNLIILEEHLKNKKEFDHNSNIRYRCRGKEGWIHTVCINGRWDPEVNCSMAQIQLCPPPPQIPNSHNMTTTLNYRDGEKVSVLCQENYLIQEGEEITCKDGRWQSIPLCVEKIPCSQPPQIEHGTINSSRSSQESYAHGTKLSYTCEGGFRISEENETTCYMGKWSSPPQCEGLPCKSPPEISHGVVAHMSDSYQYGEEVTYKCFEGFGIDGPAIAKCLGEKWSHPPSCIKTDCLSLPSFENAIPMGEKKDVYKAGEQVTYTCATYYKMDGASNVTCINSRWTGRPTCRDTSCVNPPTVQNAYIVSRQMSKYPSGERVRYQCRSPYEMFGDEEVMCLNGNWTEPPQCKDSTGKCGPPPPIDNGDITSFPLSVYAPASSVEYQCQNLYQLEGNKRITCRNGQWSEPPKCLHPCVISREIMENYNIALRWTAKQKLYSRTGESVEFVCKRGYRLSSRSHTLRTTCWDGKLEYPTCAKR
modifications: eight residual N-acetylglucosamine moieties after endoglycosidase H (Endo Hf) digestion of the N-linked glycans
B2: plasma-purified human complement factor H (reference FH) (natural protein, UniProt P08603 19-1231, looked up)
chain: B1 chain
modifications: eight N-glycans (native protein)

Biological target: C3b (UniProt P01024 23-667; P01024 749-1663)
Sequence (P01024 23-667, chain 1 of 2): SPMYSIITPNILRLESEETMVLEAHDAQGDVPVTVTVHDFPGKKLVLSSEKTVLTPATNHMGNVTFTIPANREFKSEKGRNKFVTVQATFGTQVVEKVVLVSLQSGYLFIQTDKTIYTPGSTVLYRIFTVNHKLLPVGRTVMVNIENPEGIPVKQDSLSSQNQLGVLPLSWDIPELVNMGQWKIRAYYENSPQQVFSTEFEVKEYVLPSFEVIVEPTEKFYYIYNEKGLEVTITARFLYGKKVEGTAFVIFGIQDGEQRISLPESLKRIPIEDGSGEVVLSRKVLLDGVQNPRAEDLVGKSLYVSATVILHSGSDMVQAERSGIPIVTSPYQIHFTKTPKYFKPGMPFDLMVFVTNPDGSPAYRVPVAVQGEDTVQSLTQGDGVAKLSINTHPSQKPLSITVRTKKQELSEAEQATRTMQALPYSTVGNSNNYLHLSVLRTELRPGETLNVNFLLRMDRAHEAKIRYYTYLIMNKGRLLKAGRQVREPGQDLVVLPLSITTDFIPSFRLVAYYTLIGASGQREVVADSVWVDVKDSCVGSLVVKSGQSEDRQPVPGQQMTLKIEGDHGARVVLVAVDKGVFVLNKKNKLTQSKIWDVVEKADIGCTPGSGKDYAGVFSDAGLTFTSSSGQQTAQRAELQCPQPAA
Sequence (P01024 749-1663, chain 2 of 2): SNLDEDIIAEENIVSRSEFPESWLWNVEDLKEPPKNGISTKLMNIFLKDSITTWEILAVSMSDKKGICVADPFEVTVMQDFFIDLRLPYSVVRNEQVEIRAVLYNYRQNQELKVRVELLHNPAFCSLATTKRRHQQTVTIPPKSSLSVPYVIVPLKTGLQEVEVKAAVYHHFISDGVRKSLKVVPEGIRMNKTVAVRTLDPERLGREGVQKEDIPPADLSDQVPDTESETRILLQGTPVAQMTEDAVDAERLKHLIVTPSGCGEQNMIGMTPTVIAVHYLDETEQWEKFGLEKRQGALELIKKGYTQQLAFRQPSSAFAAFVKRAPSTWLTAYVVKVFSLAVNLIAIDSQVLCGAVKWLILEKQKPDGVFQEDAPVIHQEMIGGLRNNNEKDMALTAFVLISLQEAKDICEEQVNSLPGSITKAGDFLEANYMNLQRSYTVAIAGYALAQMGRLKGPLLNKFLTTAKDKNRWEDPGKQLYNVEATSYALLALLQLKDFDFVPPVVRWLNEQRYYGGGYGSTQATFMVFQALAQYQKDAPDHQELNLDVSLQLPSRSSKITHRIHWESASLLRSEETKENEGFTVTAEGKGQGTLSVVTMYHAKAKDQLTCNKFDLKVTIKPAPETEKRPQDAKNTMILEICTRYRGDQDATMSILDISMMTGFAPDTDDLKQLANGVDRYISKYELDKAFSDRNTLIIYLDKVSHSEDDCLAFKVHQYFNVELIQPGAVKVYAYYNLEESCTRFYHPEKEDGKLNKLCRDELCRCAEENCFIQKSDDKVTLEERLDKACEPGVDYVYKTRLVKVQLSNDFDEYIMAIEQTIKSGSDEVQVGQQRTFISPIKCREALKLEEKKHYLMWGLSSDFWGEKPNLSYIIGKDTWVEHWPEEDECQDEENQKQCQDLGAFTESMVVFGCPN
Assay: SPR

Binder | Kd
B1 | 1500 nM and 1400 nM
B2 | 2900 nM
